Assay results as given in article PMC9440762.

Molecular target: P72509
Experiment: SEC; C-PC dialysed overnight against 8 M urea and 30 mM β-mercaptoethanol, then loaded on Superdex 200 Increase 5/150 in urea-free 75 mM phosphate buffer pH 7.9; partial reassociation during the run

B1: C-phycocyanin αβ monomer (heterodimer of the α and β subunits) from Arthrospira platensis (protein)
chain 1: not shown
chain 2: MFDAFTKVVSQADTRGEMLSTAQIDALSQMVAESNKRLDAVNRITSNASTIVSNAARSLFAEQPQLIAPGGNAYTSRRMAACLRDMEIILRYVTYAVFAGDASVLEDRCLNGLRETYLALGTPGSSVAVGVGKMKEAALAIVNDPAGITPGDCSALASEIASYFDRACAAVS
yield of the state with the initial hydrodynamic characteristics after renaturation from 8 M urea: 9.6%
